Experimental data: PMC11574045, “A cofactor-induced repressive type of transcription factor condensation can be induced by synthetic peptides to suppress tumorigenesis” (The EMBO Journal, 2024)

System: HEK293FT cells transfected with TF library
Experiment: Screening of TF condensates based on fluorescent puncta
Format: cell-based
Conditions: Figure 1B numerical data; TF library screen, one value per transcriptional factor
How it was run: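 HEK293FT, PEI transfection of TF library, 60 h; ±glucose 12 h; 4% PFA fix, 0.05% Triton X-100 permeabilization, 5% BSA block; anti-Flag/anti-GAL4 overnight at 4 °C, Alexa 488 secondary 1 h; high-content imaging, 50 fields/well.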

Molecule	Z score of condensed fraction
ZPF91 (protein, UniProt Q96JP5 2-570, looked up) E3 ubiquitin-protein ligase …: PGETEEPRPPEQQDQEGGEAAKAAPEEPQQRPPEAVAAAPAGTTSSRVLRGGRDRGRAAAAAAAAAVSRRRKAEYPRRRRSSPSARPPDVPGQQPQAAKSPSPVQGKKSPRLLCIEKVTTDKDPKEEKEEEDDSALPQEVSIAASRPSRGWRSSRTSVSRHRDTENTRSSRSKTGSLQLICKSEPNTDQLDYDVGEEHQSPGGISSEEEEEEEEEMLISEEEIPFKDDPRDETYKPHLERETPKPRRKSGKVKEEKEKKEIKVEVEVEVKEEENEIREDEEPPRKRGRRRKDDKSPRLPKRRKKPPIQYVRCEMEGCGTVLAHPRYLQHHIKYQHLLKKKYVCPHPSCGRLFRLQKQLLRHAKHHTDQRDYICEYCARAFKSSHNLAVHRMIHTGEKPLQCEICGFTCRQKASLNWHMKKHDADSFYQFSCNICGKKFEKKDSVVAHKAKSHPEVLIAEALAANAGALITSTDILGTNPESLTQPSDGQGLPLLPEPLGNSTSGECLLLEAEGMSKSYCSGTERVSLMADGKIFVGSGSSGGTEGLVMNSDILGATTEVLIEDSDSAGP	-0.03316
ZSCAN1 (protein, UniProt Q8NBB4 1-408, looked up) Zinc finger and SCAN …: MLPRPKAPASPRRPQTPTPSEQDADPGPASPRDTEAQRLRFRQFQYHVASGPHLALGQLWTLCRQWLRPEARSKEQMLELLVLEQFLGALPSKMRTWVQSQGPRSCREAASLVEDLTQMCQQEVLVSLDSVEPQDWSFGEEEDGKSPRSQKEPSQASELILDAVAAAPALPEESEWLETTQLQQSLHTRAEAEAPRAPGLLGSRARLPLKPSIWDEPEDLLAGPSSDLRAEGTVISSPKGPSAQRISPRRRNRNTDQSGRHQPSLKHTKGGTQEAVAGISVVPRGPRGGRPFQCADCGMVFTWVTHFIEHQKTHREEGPFPCPECGKVFLHNSVLTEHGKIHLLEPPRKKAPRSKGPRESVPPRDGAQGPVAPRSPKRPFQCSVCGKAFPWMVHLIDHQKLHTAHGHM	1.179
CDX1 (protein, UniProt P47902 1-265, looked up) Homeobox protein CDX-1: MYVGYVLDKDSPVYPGPARPASLGLGPQAYGPPAPPPAPPQYPDFSSYSHVEPAPAPPTAWGAPFPAPKDDWAAAYGPGPAAPAASPASLAFGPPPDFSPVPAPPGPGPGLLAQPLGGPGTPSSPGAQRPTPYEWMRRSVAAGGGGGSGKTRTKDKYRVVYTDHQRLELEKEFHYSRYITIRRKSELAANLGLTERQVKIWFQNRRAKERKVNKKKQQQQQPPQPPMAHDITATPAGPSLGGLCPSNTSLLATSSPMPVKEEFLP	2.938
CDX2 (protein, UniProt Q99626 1-313, looked up) Homeobox protein CDX-2: MYVSYLLDKDVSMYPSSVRHSGGLNLAPQNFVSPPQYPDYGGYHVAAAAAAAANLDSAQSPGPSWPAAYGAPLREDWNGYAPGGAAAAANAVAHGLNGGSPAAAMGYSSPADYHPHHHPHHHPHHPAAAPSCASGLLQTLNPGPPGPAATAAAEQLSPGGQRRNLCEWMRKPAQQSLGSQVKTRTKDKYRVVYTDHQRLELEKEFHYSRYITIRRKAELAATLGLSERQVKIWFQNRRAKERKINKKKLQQQQQQQPPQPPPPPPQPPQPQPGPLRSVPEPLSPVSSLQASVPGSVPGVLGPTGGVLNPTVTQ	-0.211
ZNF791 (protein, UniProt Q3KP31 1-576, looked up) Zinc finger protein 791: MDSVAFEDVSVSFSQEEWALLAPSQKKLYRDVMQETFKNLASIGEKWEDPNVEDQHKNQGRNLRSHTGERLCEGKEGSQCAENFSPNLSVTKKTAGVKPYECTICGKAFMRLSSLTRHMRSHTGYELFEKPYKCKECEKAFSYLKSFQRHERSHTGEKPYKCKQCGKTFIYHQPFQRHERTHIGEKPYECKQCGKALSCSSSLRVHERIHTGEKPYECKQCGKAFSCSSSIRVHERTHTGEKPYACKECGKAFISHTSVLTHMITHNGDRPYKCKECGKAFIFPSFLRVHERIHTGEKPYKCKQCGKAFRCSTSIQIHERIHTGEKPYKCKECGKSFSARPAFRVHVRVHTGEKPYKCKECGKAFSRISYFRIHERTHTGEKPYECKKCGKTFNYPLDLKIHKRNHTGEKPYECKECAKTFISLENFRRHMITHTGDGPYKCRDCGKVFIFPSALRTHERTHTGEKPYECKQCGKAFSCSSYIRIHKRTHTGEKPYECKECGKAFIYPTSFQGHMRMHTGEKPYKCKECGKAFSLHSSFQRHTRIHNYEKPLECKQCGKAFSVSTSLKKHMRMHNR	-0.6142
ZNF800 (protein, UniProt Q2TB10 1-664, looked up) Zinc finger protein 800: MPLRDKYCQTDHHHHGCCEPVYILEPGDPPLLQQPLQTSKSGIQQIIECFRSGTKQLKHILLKDVDTIFECKLCRSLFRGLPNLITHKKFYCPPSLQMDDNLPDVNDKQSQAINDLLEAIYPSVDKREYIIKLEPIETNQNAVFQYISRTDNPIEVTESSSTPEQTEVQIQETSTEQSKTVPVTDTEVETVEPPPVEIVTDEVAPTSDEQPQESQADLETSDNSDFGHQLICCLCRKEFNSRRGVRRHIRKVHKKKMEELKKYIETRKNPNQSSKGRSKNVLVPLSRSCPVCCKSFATKANVRRHFDEVHRGLRRDSITPDIATKPGQPLFLDSISPKKSFKTRKQKSSSKAEYNLTACKCLLCKRKYSSQIMLKRHMQIVHKITLSGTNSKREKGPNNTANSSEIKVKVEPADSVESSPPSITHSPQNELKGTNHSNEKKNTPAAQKNKVKQDSESPKSTSPSAAGGQQKTRKPKLSAGFDFKQLYCKLCKRQFTSKQNLTKHIELHTDGNNIYVKFYKCPLCTYETRRKRDVIRHITVVHKKSSRYLGKITASLEIRAIKKPIDFVLNKVAKRGPSRDEAKHSDSKHDGTSNSPSKKYEVADVGIEVKVTKNFSLHRCNKCGKAFAKKTYLEHHKKTHKANASNSPEGNKTKGRSTRSKALV	3.058
ZNF770 (protein, UniProt Q6IQ21 1-691, looked up) Zinc finger protein 770: MMAENNLKMLKIQQCVVANKLPRNRPYVCNICFKHFETPSKLARHYLIHTGQKPFECDVCHKTFRQLVHLERHQLTHSLPFKCSICQRHFKNLKTFVKHQQLHNETYQNNVKQVRRLLEAKQEKSMYGVYNTFTTEERWALHPCSKSDPMYSMKRRKNIHACTICGKMFPSQSKLDRHVLIHTGQRPFKCVLCTKSFRQSTHLKIHQLTHSEERPFQCCFCQKGFKIQSKLLKHKQIHTRNKAFRALLLKKRRTESRPLPNKLNANQGGFENGEIGESEENNPLDVHSIYIVPFQCPKCEKCFESEQILNEHSCFAARSGKIPSRFKRSYNYKTIVKKILAKLKRARSKKLDNFQSEKKVFKKSFLRNCDLISGEQSSEQTQRTFVGSLGKHGTYKTIGNRKKKTLTLPFSWQNMGKNLKGILTTENILSIDNSVNKKDLSICGSSGEEFFNNCEVLQCGFSVPRENIRTRHKICPCDKCEKVFPSISKLKRHYLIHTGQRPFGCNICGKSFRQSAHLKRHEQTHNEKSPYASLCQVEFGNFNNLSNHSGNNVNYNASQQCQAPGVQKYEVSESDQMSGVKAESQDFIPGSTGQPCLPNVLLESEQSNPFCSYSEHQEKNDVFLYRCSVCAKSFRSPSKLERHYLIHAGQKPFECSVCGKTFRQAPHWKRHQLTHFKERPQGKVVALDSVM	-0.4682
